Experimental data reported in article PMC5431456, “Structure aided design of a Neu5Gc specific lectin” (Scientific Reports, 2017).
Positions count from the first letter of the chain named. Names may count otherwise.

B1: SubB ΔS106/ΔT107/E108D (natural protein)
chain: EWTGDARDGMFSGVVITQFHTGQIDNKPYFCIEGKQSAGSSISACSMKNSSVWGASFSTLYNQALYFYTTGQPVRIYYKPGVWTYPPFVKALTSNALVGLSTCTTDCFGPDRKKNS
notes: source: E. coli BL21(DE3), pET-23(+), purified (Ni-NTA)
B2: Subtilase cytotoxin B subunit (SubB), wild type (natural protein)
chain: EWTGDARDGMFSGVVITQFHTGQIDNKPYFCIEGKQSAGSSISACSMKNSSVWGASFSTLYNQALYFYTTGQPVRIYYKPGVWTYPPFVKALTSNALVGLSTCTTSTECFGPDRKKNS
notes: also called Wild type SubB; wild-type SubB; source: E. coli BL21(DE3), pET-23(+), purified (Ni-NTA)
B3: SubB S106A/T107A (natural protein)
chain: B2 chain with S106A, T107A
notes: as for B1
B4: bovine α1-acid glycoprotein (AGP) (natural protein)
chain: QSPECANLMTVAPITNATMDLLSGKWFYIGSAFRNPEYNKSARAIQAAFFYLEPRHAEDKLITREYQTIEDKCVYNCSFIKIYRQNGTLSKVESDREHFVDLLLSKHFRTFMLAASWNGTKNVGVSFYADKPEVTQEQKKEFLDVIKCIGIQESEIIYTDEKKDACGPLEKQHEEERKKETEAS
modifications: glycans that contain both Neu5Ac and Neu5Gc
notes: also called Bovine α1-AGP; bovine AGP

Key:
Settings in all cases: both partners purified
[1] = molecular target: B4; assay: SPR
[2] = molecular target: B4; assay: SPR; Biacore T100; SubB or SubB mutant immobilised on a series S CM5 chip (flow cell 1 blank); AGP flowed over, 0.01-100 µM in range finding; single cycle kinetics
[3] = molecular target: T1, SubB ΔS106/ΔT107 (Escherichia coli, UniProt Q6EZC3 24-141, ΔS106/ΔT107); assay: SPR
T1 construct: source: E. coli BL21(DE3), pET-23(+), purified (Ni-NTA)

Binder	Kd [1] [nM]	further results
B1	32.5 ± 2.6	
B2		Kd [2]: 156 ± 22 nM
B3	164 ± 10	
B4		Kd [3]: 115 ± 37 nM
